{"source": "paper PMC8509827", "molecular_target": "ArsR6 (Flag-tagged, in the complemented strain C[change]) (Brucella suis S2)", "experiment": "cross-linking"}
{"substance": "ArsR6 (Flag-tagged, in the complemented strain C[change]) (natural protein)", "values": [{"measurement": "stoichiometry N", "value": 2}]}
